# Data taken from patent US20230035798A1 (CAPELLA BIOSCIENCE, published 2023).
# Changes are numbered by the printed parent chain. Names and notes keep the numbering of the source.
# B1: 3B04_var8 (antibody, human IgG4, V domains shown)
# VH: QVQLVQSGAEVKKPGASVKVSCKASGYTFTDYEMHWVRQAPGQGLEWMGEIDPETGDTAYAQKFQGRVTLTADKSTSTAYMELSSLRSEDTAVYYCSRETDYFFDYWGQGTLVTVSS
# VL: DIQMTQSPSSLSASVGDRVTITCGASENIYGALNWYQRKQGKAPKLLIYGATNLADGVPSRFSGSGSGRDYTLTISSLQPEDFATYYCQNVLTTPWTFGQGTKLEIKR
# notes: human IgG4 (S241P, L248E, Kabat); also called 3B04 VL2VH4 (var8)
# B2: 3D12_var13 (antibody, human IgG4, V domains shown)
# VH: B1 VH with G26D, Y32S, M34I, M48I, D57G, A61N, Q65K, V68A
# VL: B1 VL with G24R, R38Q, Q40P, D56E, F83V, T93S
# notes: human IgG4 (S241P, L248E, Kabat); also called 3D12 VL4VH1 (var13)
# B3: 3B04_var1 (antibody, human IgG4, V domains shown)
# VH: B1 VH with M48I, A61S, Q65K, V68A, L83F
# VL: B1 VL with K45Q, P59S
# notes: human IgG4 (S241P, L248E, Kabat); also called 3B04 VL1VH1 (var1)
# B4: 3D12_var3 (antibody, human IgG4, V domains shown)
# VH: B1 VH with G26D, Y32S, M34I, D57G
# VL: B1 VL with K45Q, P59S, F83V, T93S
# notes: human IgG4 (S241P, L248E, Kabat); also called 3D12 VL1VH3 (var3)
# B5: 3D12_var2 (antibody, human IgG4, V domains shown)
# VH: B1 VH with G26D, Y32S, M34I, M48I, D57G, A61N
# VL: B1 VL with K45Q, P59S, F83V, T93S
# notes: human IgG4 (S241P, L248E, Kabat); also called 3D12 VL1VH2 (var2)
# B6: 3D12_var4 (antibody, human IgG4, V domains shown)
# VH: B1 VH with Y32S, D57G
# VL: B1 VL with K45Q, P59S, F83V, T93S
# notes: human IgG4 (S241P, L248E, Kabat); also called 3D12 VL1VH4 (var4)
# B7: 3B04_var16 (antibody, human IgG4, V domains shown)
# VH: B1 VH
# VL: B1 VL with G24R, R38Q, Q40P, D56E
# notes: human IgG4 (S241P, L248E, Kabat); also called 3B04 VL4VH4 (var16); 3B04 variant 16
# B8: 3D12_var7 (antibody, human IgG4, V domains shown)
# VH: B1 VH with G26D, Y32S, M34I, D57G
# VL: B1 VL with F83V, T93S
# notes: human IgG4 (S241P, L248E, Kabat); also called 3D12 VL2VH3 (var7)
# B9: 3B04_var2 (antibody, human IgG4, V domains shown)
# VH: B1 VH with M48I, A61S, L83F
# VL: B1 VL with K45Q, P59S
# notes: human IgG4 (S241P, L248E, Kabat); also called 3B04 VL1VH2 (var2)
# B10: 3B04_var11 (antibody, human IgG4, V domains shown)
# VH: B1 VH with L83F
# VL: B1 VL with R38Q, Q40P
# notes: human IgG4 (S241P, L248E, Kabat); also called 3B04 VL3VH3 (var11)
# B11: 3B04_var10 (antibody, human IgG4, V domains shown)
# VH: B1 VH with M48I, A61S, L83F
# VL: B1 VL with R38Q, Q40P
# notes: human IgG4 (S241P, L248E, Kabat); also called 3B04 VL3VH2 (var10)
# B12: 3D12_var9 (antibody, human IgG4, V domains shown)
# VH: B1 VH with G26D, Y32S, M34I, M48I, D57G, A61N, Q65K, V68A
# VL: B1 VL with R38Q, Q40P, F83V, T93S
# notes: human IgG4 (S241P, L248E, Kabat); also called 3D12 VL3VH1 (var9)
# B13: 3D12_var15 (antibody, human IgG4, V domains shown)
# VH: B1 VH with G26D, Y32S, M34I, D57G
# VL: B1 VL with G24R, R38Q, Q40P, D56E, F83V, T93S
# notes: human IgG4 (S241P, L248E, Kabat); also called 3D12 VL4VH3 (var15)
# B14: 3D12_var12 (antibody, human IgG4, V domains shown)
# VH: B1 VH with Y32S, D57G
# VL: B1 VL with R38Q, Q40P, F83V, T93S
# notes: human IgG4 (S241P, L248E, Kabat); also called 3D12 VL3VH4 (var12)
# B15: 3D12_var14 (antibody, human IgG4, V domains shown)
# VH: B1 VH with G26D, Y32S, M34I, M48I, D57G, A61N
# VL: B1 VL with G24R, R38Q, Q40P, D56E, F83V, T93S
# notes: human IgG4 (S241P, L248E, Kabat); also called 3D12 VL4VH2 (var14)
# B16: 3B04_var12 (antibody, human IgG4, V domains shown)
# VH: B1 VH
# VL: B1 VL with R38Q, Q40P
# notes: human IgG4 (S241P, L248E, Kabat); also called 3B04 VL3VH4 (var12)
# B17: 3B04_var13 (antibody, human IgG4, V domains shown)
# VH: B1 VH with M48I, A61S, Q65K, V68A, L83F
# VL: B1 VL with G24R, R38Q, Q40P, D56E
# notes: human IgG4 (S241P, L248E, Kabat); also called 3B04 VL4VH1 (var13)
# B18: 3B04_var9 (antibody, human IgG4, V domains shown)
# VH: B1 VH with M48I, A61S, Q65K, V68A, L83F
# VL: B1 VL with R38Q, Q40P
# notes: human IgG4 (S241P, L248E, Kabat); also called 3B04 VL3VH1 (var9)
# B19: 3D12_var6 (antibody, human IgG4, V domains shown)
# VH: B1 VH with G26D, Y32S, M34I, M48I, D57G, A61N
# VL: B1 VL with F83V, T93S
# notes: human IgG4 (S241P, L248E, Kabat); also called 3D12 VL2VH2 (var6)
# B20: 3B04_var7 (antibody, human IgG4, V domains shown)
# VH: B1 VH with L83F
# VL: B1 VL
# notes: human IgG4 (S241P, L248E, Kabat); also called 3B04 VL2VH3 (var7)
# B21: 3D12_var11 (antibody, human IgG4, V domains shown)
# VH: B1 VH with G26D, Y32S, M34I, D57G
# VL: B1 VL with R38Q, Q40P, F83V, T93S
# notes: human IgG4 (S241P, L248E, Kabat); also called 3D12 VL3VH3 (var11)
# B22: 3D12_var5 (antibody, human IgG4, V domains shown)
# VH: B1 VH with G26D, Y32S, M34I, M48I, D57G, A61N, Q65K, V68A
# VL: B1 VL with F83V, T93S
# notes: human IgG4 (S241P, L248E, Kabat); also called 3D12 VL2VH1 (var5)
# B23: 3B04_var6 (antibody, human IgG4, V domains shown)
# VH: B1 VH with M48I, A61S, L83F
# VL: B1 VL
# notes: human IgG4 (S241P, L248E, Kabat); also called 3B04 VL2VH2 (var6)
# B24: 3D12_var1 (antibody, human IgG4, V domains shown)
# VH: B1 VH with G26D, Y32S, M34I, M48I, D57G, A61N, Q65K, V68A
# VL: B1 VL with K45Q, P59S, F83V, T93S
# notes: human IgG4 (S241P, L248E, Kabat); also called 3D12 VL1VH1 (var1)
# B25: 3D12_var8 (antibody, human IgG4, V domains shown)
# VH: B1 VH with Y32S, D57G
# VL: B1 VL with F83V, T93S
# notes: human IgG4 (S241P, L248E, Kabat); also called 3D12 VL2VH4 (var8)
# B26: 3B04_var5 (antibody, human IgG4, V domains shown)
# VH: B1 VH with M48I, A61S, Q65K, V68A, L83F
# VL: B1 VL
# notes: human IgG4 (S241P, L248E, Kabat); also called 3B04 VL2VH1 (var5)
# B27: 3B04_var4 (antibody, human IgG4, V domains shown)
# VH: B1 VH
# VL: B1 VL with K45Q, P59S
# notes: human IgG4 (S241P, L248E, Kabat); also called 3B04 VL1VH4 (var4)
# B28: 3D12_var10 (antibody, human IgG4, V domains shown)
# VH: B1 VH with G26D, Y32S, M34I, M48I, D57G, A61N
# VL: B1 VL with R38Q, Q40P, F83V, T93S
# notes: human IgG4 (S241P, L248E, Kabat); also called 3D12 VL3VH2 (var10)
# B29: 3B04_var3 (antibody, human IgG4, V domains shown)
# VH: B1 VH with L83F
# VL: B1 VL with K45Q, P59S
# notes: human IgG4 (S241P, L248E, Kabat); also called 3B04 VL1VH3 (var3)
# B30: 3D12_var16 (antibody, human IgG4, V domains shown)
# VH: B1 VH with Y32S, D57G
# VL: B1 VL with G24R, R38Q, Q40P, D56E, F83V, T93S
# notes: human IgG4 (S241P, L248E, Kabat); also called 3D12 VL4VH4 (var16)
# B31: 3B04_var14 (antibody, human IgG4, V domains shown)
# VH: B1 VH with M48I, A61S, L83F
# VL: B1 VL with G24R, R38Q, Q40P, D56E
# notes: human IgG4 (S241P, L248E, Kabat); also called 3B04 VL4VH2 (var14)
# B32: 3B04_var15 (antibody, human IgG4, V domains shown)
# VH: B1 VH with L83F
# VL: B1 VL with G24R, R38Q, Q40P, D56E
# notes: human IgG4 (S241P, L248E, Kabat); also called 3B04 VL4VH3 (var15)
# B33: LTβR-Fc (Fc fusion, UniProt P36941 28-227, looked up)
# chain: SQPQAVPPYASENQTCRDQEKEYYEPQHRICCSRCPPGTYVSAKCSRIRDTVCATCAENSYNEHWNYLTICQLCRPCDPVMGLEEIAPCTSKRKTQCRCQPGMFCAAWALECTHCELLSDCPPGTEAELKDEVGKGNNHCVPCKAGHFQNTSSPSARCQPHTRCENQGLVEAAPGTAQSDTTCKNPLEPLPPEMSGTMLM
# modifications: biotinylated (EZ-Link NHS-LC-Biotin) in the competition assays
# notes: also called LTBR-Fc; biotin-LTβR-Fc; not shown: Fc part of the bought fusion protein
# B34: HVEM-Fc (Fc fusion, UniProt Q92956 37-202, looked up)
# chain: PALPSCKEDEYPVGSECCPKCSPGYRVKEACGELTGTVCEPCPPGTYIAHLNGLSKCLQCQMCDPAMGLRASRNCSRTENAVCGCSPGHFCIVQDGDHCAACRAYATSSPGQRVQKGGTESQDTLCQNCPPGTFSPNGTLEECQHQTKCSWLVTKAGAGTSSSHWV
# modifications: biotinylated (EZ-Link NHS-LC-Biotin) in the competition assays
# notes: also called biotin-HVEM-Fc; biotinylated HVEM-Fc; not shown: Fc part of the bought fusion protein
# Molecular target: T1, human LIGHT (TNFSF14), full length, membrane-bound (214E allele) (human, UniProt O43557 1-240)
# T1 construct: also called membrane LIGHT; human membrane LIGHT
# T1 sequence (O43557 whole entry K214E): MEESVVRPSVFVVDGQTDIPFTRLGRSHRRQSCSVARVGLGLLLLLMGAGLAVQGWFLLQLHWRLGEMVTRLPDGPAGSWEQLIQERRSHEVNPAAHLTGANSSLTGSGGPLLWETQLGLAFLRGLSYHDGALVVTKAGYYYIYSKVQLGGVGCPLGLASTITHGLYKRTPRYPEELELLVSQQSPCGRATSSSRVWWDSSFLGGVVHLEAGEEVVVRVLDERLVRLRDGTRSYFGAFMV
# Assay: flow cytometry, EL4-LIGHT cells
row,EC50,Binder
1,0.28 nM,B1
2,0.24 nM,B2
3,0.24 nM,B3
4,0.33 nM,B4
5,0.47 nM,B5
6,0.32 nM,B6
7,0.24 nM,B7
8,0.38 nM,B8
9,0.38 nM,B9
10,0.37 nM,B10
11,0.49 nM,B11
12,0.36 nM,B12
13,0.22 nM,B13
14,0.33 nM,B14
15,0.23 nM,B15
16,0.24 nM,B16

row,EC50,Binder
1,0.32 nM,B17
2,0.26 nM,B18
3,0.31 nM,B19
4,0.23 nM,B20
5,0.34 nM,B21
6,0.33 nM,B22
7,0.27 nM,B23
8,0.22 nM,B24
9,0.31 nM,B25
10,0.27 nM,B26
11,0.26 nM,B27
12,0.39 nM,B28
13,0.32 nM,B29
14,0.26 nM,B30
15,0.3 nM,B31
16,0.39 nM,B32

# Molecular target: T1, human LIGHT (TNFSF14), full length, …
# Assay: flow cytometry, HEK293FF human LIGHT cells (value given in the method)
row,EC50,Binder
1,15 nM,B33
2,45 nM,B34

# Molecular target: membrane LIGHT without residues 81-84 (EL4-NC-LIGHT cells) (human, UniProt O43557 1-240)
# Sequence (O43557 other isoform, or with tags, fused parts or gaps): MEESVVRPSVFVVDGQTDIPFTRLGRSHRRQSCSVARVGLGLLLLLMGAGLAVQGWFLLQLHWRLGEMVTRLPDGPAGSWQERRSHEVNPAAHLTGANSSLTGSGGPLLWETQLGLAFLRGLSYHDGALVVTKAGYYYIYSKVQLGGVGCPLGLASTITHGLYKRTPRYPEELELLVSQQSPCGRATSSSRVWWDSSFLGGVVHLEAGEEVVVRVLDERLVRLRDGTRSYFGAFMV
# Assay: cell-based or functional assay
row,"IC50, inhibition of IL-8 secretion from HT-29 cells (EL4-NC-LIGHT cells)",Binder
1,0.05 nM,B1
2,0.45 nM,B2
3,0.05 nM,B3
4,0.53 nM,B4
5,0.74 nM,B5
6,0.66 nM,B6
7,0.1 nM,B7
8,0.54 nM,B8
9,0.06 nM,B9
10,0.06 nM,B10
11,0.04 nM,B11
12,0.71 nM,B12
13,0.38 nM,B13
14,0.58 nM,B14
15,0.45 nM,B15
16,0.07 nM,B16

row,"IC50, inhibition of IL-8 secretion from HT-29 cells (EL4-NC-LIGHT cells)",Binder
1,0.04 nM,B17
2,0.09 nM,B18
3,0.47 nM,B19
4,0.05 nM,B20
5,0.55 nM,B21
6,0.59 nM,B22
7,0.08 nM,B23
8,0.33 nM,B24
9,0.67 nM,B25
10,0.04 nM,B26
11,0.04 nM,B27
12,0.44 nM,B28
13,0.04 nM,B29
14,0.52 nM,B30
15,0.05 nM,B31
16,0.1 nM,B32
